{
  "source": "paper PMC2703826",
  "molecular_target": "C-terminal hydrophilic (cytoplasmic) domain of non-structural protein 4 from mouse hepatitis virus strain A59, wild type (mouse hepatitis virus strain A59)",
  "assay": "SEC; Superdex75, 50 mM Tris-Cl pH 8.5, 300 mM NaCl (legend: 150 mM NaCl), no reducing agent, 0.5 mL/min; calibrated with marker proteins",
  "data": [
    {"substance": "C-terminal hydrophilic (cytoplasmic) domain of non-structural protein 4 from mouse hepatitis virus strain A59, wild type (domain or fragment)", "values": [
      {"measurement": "stoichiometry N", "value": 2}
    ]}
  ]
}
